From patent publication US20210171610A1 (US Dept. of Health and Human Services, published 2021)

Assays:
[1] = target: T1, Soluble EBV gH/gL/gp42 complex (HIS-tagged) (Epstein Barr Virus, UniProt P03231 19-679; P03212 24-137; P03205 33-223); experiment: Biolayer interferometry (Octet), His-tagged gH/gL/gp42 on HIS1K biosensors, Fab dilution series (top curve labelled 1.00E-07), 300 s association, 900 s dissociation, 1:1 global fit
[2] = target: T2, Soluble EBV gH/gL complex (poly-histidine tagged) (Epstein Barr Virus, UniProt P03231 19-679; P03212 24-137); experiment: Biolayer interferometry (Octet), His-tagged gH/gL on HIS1K biosensors, Fab dilution series (top curve labelled 5.00E-08), 300 s association, 900 s dissociation, 1:1 global fit
T2 construct: also called gH/gL Avi-His probe
T2 sequence (P03231 19-679 limits assumed, chain 1 of 2): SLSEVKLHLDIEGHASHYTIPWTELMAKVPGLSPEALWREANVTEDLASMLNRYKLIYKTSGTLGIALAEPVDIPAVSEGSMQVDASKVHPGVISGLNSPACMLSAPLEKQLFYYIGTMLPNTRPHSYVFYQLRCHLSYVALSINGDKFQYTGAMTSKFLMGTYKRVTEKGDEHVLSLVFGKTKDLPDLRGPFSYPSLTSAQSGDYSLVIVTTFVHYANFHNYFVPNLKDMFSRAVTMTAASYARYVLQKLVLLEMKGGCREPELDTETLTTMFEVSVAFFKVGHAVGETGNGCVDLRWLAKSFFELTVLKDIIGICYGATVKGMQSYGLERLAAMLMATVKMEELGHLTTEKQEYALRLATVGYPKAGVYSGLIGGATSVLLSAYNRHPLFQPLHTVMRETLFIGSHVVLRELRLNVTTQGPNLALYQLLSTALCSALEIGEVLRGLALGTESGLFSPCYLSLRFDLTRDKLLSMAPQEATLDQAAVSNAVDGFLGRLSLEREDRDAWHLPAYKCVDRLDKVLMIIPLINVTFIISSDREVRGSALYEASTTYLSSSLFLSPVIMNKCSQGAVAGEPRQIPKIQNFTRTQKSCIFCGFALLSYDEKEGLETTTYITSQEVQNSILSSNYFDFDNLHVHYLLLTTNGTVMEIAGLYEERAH
T2 sequence (P03212 24-137 limits assumed, chain 2 of 2): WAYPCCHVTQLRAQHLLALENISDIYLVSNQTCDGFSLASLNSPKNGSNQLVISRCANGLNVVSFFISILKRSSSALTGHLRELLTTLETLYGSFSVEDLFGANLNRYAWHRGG

[3] = target: T2, Soluble EBV gH/gL complex …; experiment: BLI (Octet), His-captured soluble gH/gL on HIS1K biosensor, Fab in solution, 1:1 global fit; target gH/gL without gp42
[4] = target: T1, Soluble EBV gH/gL/gp42 complex …; experiment: Biolayer interferometry (Octet), His-tagged gH/gL/gp42 on HIS1K biosensors, Fab dilution series (top curve labelled 2.50E-08), 300 s association, 900 s dissociation, 1:1 global fit
[5] = target: T1, Soluble EBV gH/gL/gp42 complex …; experiment: BLI (Octet), His-captured soluble gH/gL/gp42 on HIS1K biosensor, Fab in solution, 1:1 global fit; target gH/gL/gp42 (gp42 present)
[6] = target: T2, Soluble EBV gH/gL complex …; experiment: BLI kinetics, KD on gH/gL against KD on gH/gL/gp42
[7] = target: T2, Soluble EBV gH/gL complex …; experiment: Biolayer interferometry (Octet), His-tagged gH/gL on HIS1K biosensors, Fab dilution series (top curve labelled 2.50E-08), 300 s association, 900 s dissociation, 1:1 global fit
[8] = target: T1, Soluble EBV gH/gL/gp42 complex …; experiment: Biolayer interferometry (Octet), His-tagged gH/gL/gp42 on HIS1K biosensors, Fab dilution series (top curve labelled 2.50E-08), 1:1 global fit; same panel as FIG. 1C
[9] = target: T2, Soluble EBV gH/gL complex …; experiment: Biolayer interferometry (Octet), His-tagged gH/gL on HIS1K biosensors, Fab dilution series (top curve labelled 2.50E-08), 1:1 global fit; same panel as FIG. 1C
[10] = target: T1, Soluble EBV gH/gL/gp42 complex …; experiment: Biolayer interferometry (Octet), His-tagged gH/gL/gp42 on HIS1K biosensors, Fab dilution series (top curve labelled 5.00E-08), 300 s association, 900 s dissociation, 1:1 global fit
[11] = target: T2, Soluble EBV gH/gL complex …; experiment: Biolayer interferometry (Octet), His-tagged gH/gL on HIS1K biosensors, Fab dilution series (top curve labelled 2.50E-08), 300 s association, 900 s dissociation, 1:1 global fit; remark: listed apart in the source

T1 sequence (P03231 19-679 limits assumed, chain 1 of 3): as the sequence (P03231 19-679 limits assumed, chain 1 of 2) above
T1 sequence (P03212 24-137 limits assumed, chain 2 of 3): as the sequence (P03212 24-137 limits assumed, chain 2 of 2) above
T1 sequence (P03205 33-223 limits assumed, chain 3 of 3): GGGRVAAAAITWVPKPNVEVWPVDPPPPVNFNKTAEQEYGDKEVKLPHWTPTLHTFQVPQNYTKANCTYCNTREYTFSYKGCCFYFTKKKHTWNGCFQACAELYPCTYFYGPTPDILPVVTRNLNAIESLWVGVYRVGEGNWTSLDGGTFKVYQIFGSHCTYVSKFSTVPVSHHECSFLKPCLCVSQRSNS

B1: Fab fragment of antibody 769C2 (Fab, V domains shown)
VH: EVQLVESGGGLVKPGGSLRLSCAASGFTFSTYAMDWVRQAPGKGLEWVSLISSRSSNIYYSDSVKGRFTISRDNAKNSLFLQMNSLRAEDTAVYYCAREAGGFHSHFDMWGQGTLVTVSS
VL: QSVLTQPASVSGSLGQSVTISCTGTSSDVGGYDYVSWYQQHPGKAPKLMIFEVNNRPSGVSTRFSGSKSGNTASLTISGLQAEDEADYYCNSYSTTTTWVFGGGTSLT
notes: also called 769C2 Fab
With B1 the Kd [1] was 2.05 nM, the koff [1] was 0.000425 s⁻¹ and the kon [1] was 207000 M⁻¹ s⁻¹. For the same binder, the Kd [2] was 1.16 nM, the koff [2] was 0.000292 s⁻¹ and the kon [2] was 252000 M⁻¹ s⁻¹.

B2: Fab fragment of 769B10 (Fab, V domains shown)
VH: EVQLVESGGGIVQPGGSLRVSCAASGFSLSDHYMDWVRQAPGRGLEWVGRSRNKENSFTTEFAASVRRRFTISRDDSNSLLHLQMNNLKSEDTAVYFCARVGYYDLWSGYSGNWYIDVWGRGTLVIVSS
VL: DIQMTQSPSSLSASLGDSVTITCRASQTMSNFLNWYQQKPGKAPKFLIYAASRLQSGVPSRFSGSGSGTQFTLTISNLQPEDFATYYCQQSFIFPYTFGGGTKVEVE
notes: also called 769B10 Fab; B10 Fab
For B2, the Kd [3] was 0.0307 nM, the koff [4] was 2.58e-05 s⁻¹ and the kon [4] was 564000 M⁻¹ s⁻¹. For the same binder, the Kd [5] was 0.458 nM, the “fold stronger affinity than for gH/gL/gp42” value [6] was 10 fold and the koff [7] was 1.51e-05 s⁻¹. For the same binder, the kon [7] was 490000 M⁻¹ s⁻¹, the koff [8] was 2.58e-05 s⁻¹ and the kon [8] was 564000 M⁻¹ s⁻¹. It also gave a koff [9] of 1.51e-05 s⁻¹ and a kon [9] of 490000 M⁻¹ s⁻¹.

B3: Fab fragment of antibody 770F7 (Fab, V domains shown)
VH: QVQFQQWGAGLLKPSETLSLTCGVYGGSLSGYYWSWIRQTPGKGLEWIGEINHTGTTNYNPSLKSRVTMSVDTSKNQFSLKMSSLTAADTALYYCAREGAPRWALKRPSNWFDPWGQGTLVTVSS
VL: EIVLTQSPVSLSLSPGERATLSCRASQSISSTYLAWYQQIPGQAPRLLIYGASSRAAGIPDRFSGGGSGTDFTLTISRLEPEDFAVYYCQQYGSSPRSFGQGTKLEIK
notes: also called 770F7 Fab
With B3 the Kd [10] was 0.207 nM, the koff [10] was 0.000128 s⁻¹ and the kon [10] was 619000 M⁻¹ s⁻¹. The Kd [11] was 0.317 nM, the koff [11] was 0.000165 s⁻¹ and the kon [11] was 520000 M⁻¹ s⁻¹.
